Consider 125 sequences from the supplement of paper PMC9112550, “Optimization of the antimicrobial peptide Bac7 by deep mutational scanning” (BMC Biology, 2022).

In the data set the test system is Escherichia coli TOP10. The data set can be described thus: shrunken log2 fold change of peptide-encoding DNA abundance (4.5 h post-induction vs induction); higher = less antimicrobial activity (less host growth inhibition). Particulars: time post-induction: 4.5 h; library: site-saturation at positions 5, 18, 19, 20.
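Further: peptides expressed intracellularly from a pBAD plasmid library in pooled LB shake-flask culture, induced with 0.3% L-arabinose, DNA abundance read by NGS, three biological replicates, DESeq2 with apeglm shrinkage.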

Consider RRIRTRPPRLPRPRPRPMFKPRP, for which the “shrunken log2 fold change” value was -0.122. For the sequence RRIRRRPPRLPRPRPRPHFHPRP, the “shrunken log2 fold change” value is -0.217. Take RRIRPRPPRLPRPRPRPPGKPRP: the “shrunken log2 fold change” value was 0.335.

In the case of RRIRHRPPRLPRPRPRPGFLPRP, the “shrunken log2 fold change” value is -0.0294.

Take RRIRCRPPRLPRPRPRPDHCPRP: the “shrunken log2 fold change” value turned out to be 0.00334. In the case of RRIRIRPPRLPRPRPRPWTKPRP it was 0.0573.

As to RRIRDRPPRLPRPRPRPSERPRP, the “shrunken log2 fold change” value came to 0.0188. Next, RRIRRRPPRLPRPRPRPMMGPRP: 0.235. Next, RRIRTRPPRLPRPRPRPYFLPRP: -1.18. In the case of RRIRRRPPRLPRPRPRPCNPPRP, the “shrunken log2 fold change” value was -0.466. Next, RRIRLRPPRLPRPRPRPEKPPRP: 0.148; RRIRGRPPRLPRPRPRPSLFPRP: 0.442.

As to RRIRMRPPRLPRPRPRPQCMPRP, the “shrunken log2 fold change” value is -0.0822.

For the sequence RRIRHRPPRLPRPRPRPLKYPRP, the “shrunken log2 fold change” value is -0.345. RRIRPRPPRLPRPRPRPLLEPRP: the “shrunken log2 fold change” value turned out to be 0.059. For RRIRERPPRLPRPRPRPIWRPRP, the “shrunken log2 fold change” value was 0.0579. Next, RRIRWRPPRLPRPRPRPQKMPRP: -0.0924; RRIRYRPPRLPRPRPRPPIFPRP: -0.381; RRIRARPPRLPRPRPRPHSNPRP: -0.251.

As for RRIRFRPPRLPRPRPRPRAMPRP, the “shrunken log2 fold change” value came out at 0.241.

With RRIRQRPPRLPRPRPRPGWHPRP, the “shrunken log2 fold change” value is 0.0202.

For the sequence RRIRKRPPRLPRPRPRPRVFPRP, the “shrunken log2 fold change” value was found to be 0.701.

For RRIRNRPPRLPRPRPRPWASPRP, the “shrunken log2 fold change” value stood at 0.00581.

Turning to RRIRIRPPRLPRPRPRPMQYPRP, the “shrunken log2 fold change” value is -0.016. In the case of RRIRGRPPRLPRPRPRPARTPRP it was 0.545.

Turning to RRIRCRPPRLPRPRPRPWKAPRP, the “shrunken log2 fold change” value came to 0.0231. With RRIRERPPRLPRPRPRPWFMPRP, the “shrunken log2 fold change” value is -0.688. With RRIRDRPPRLPRPRPRPYTIPRP, the “shrunken log2 fold change” value was -0.0747. With RRIRLRPPRLPRPRPRPFLLPRP, the “shrunken log2 fold change” value is -0.47. As for RRIRIRPPRLPRPRPRPLGCPRP, the “shrunken log2 fold change” value is -0.0574. As for RRIRNRPPRLPRPRPRPDKMPRP, the “shrunken log2 fold change” value came out at 0.0206. As for RRIRVRPPRLPRPRPRPEGRPRP, the “shrunken log2 fold change” value amounted to 0.0493. With RRIRTRPPRLPRPRPRPWWVPRP, the “shrunken log2 fold change” value was -0.0227.

With RRIRGRPPRLPRPRPRPEFGPRP, the “shrunken log2 fold change” value turned out to be 0.797. As for RRIRYRPPRLPRPRPRPEWVPRP, the “shrunken log2 fold change” value is -0.0265. In the case of RRIRQRPPRLPRPRPRPQQGPRP, the “shrunken log2 fold change” value is -0.147. As for RRIRKRPPRLPRPRPRPAVNPRP, the “shrunken log2 fold change” value was -0.0383.

With RRIRYRPPRLPRPRPRPHEWPRP, the “shrunken log2 fold change” value is -0.0416. RRIRCRPPRLPRPRPRPHAAPRP: the “shrunken log2 fold change” value was 0.31.

As to RRIRMRPPRLPRPRPRPDHDPRP, the “shrunken log2 fold change” value was -0.0765. Take RRIRPRPPRLPRPRPRPPHTPRP: the “shrunken log2 fold change” value came out at 0.398. Regarding RRIRDRPPRLPRPRPRPDGEPRP, the “shrunken log2 fold change” value is -0.0121. In the case of RRIRERPPRLPRPRPRPETNPRP it was -0.000368; in that of RRIRKRPPRLPRPRPRPWCQPRP, -0.0158; in that of RRIRSRPPRLPRPRPRPEYRPRP, 0.2. Turning to RRIRLRPPRLPRPRPRPRHVPRP, the “shrunken log2 fold change” value is -0.127.

Consider RRIRRRPPRLPRPRPRPCKDPRP, for which the “shrunken log2 fold change” value is -0.0845. RRIRRRPPRLPRPRPRPGQHPRP: the “shrunken log2 fold change” value is -0.0579.

For the sequence RRIRDRPPRLPRPRPRPCNVPRP, the “shrunken log2 fold change” value was determined as 0.0436. Regarding RRIRIRPPRLPRPRPRPHWLPRP, the “shrunken log2 fold change” value is -0.49. In the case of RRIRQRPPRLPRPRPRPQEMPRP it was -0.119; in that of RRIRKRPPRLPRPRPRPENRPRP, 0.246; in that of RRIRDRPPRLPRPRPRPKPDPRP, 0.306. Regarding RRIRIRPPRLPRPRPRPNKPPRP, the “shrunken log2 fold change” value was -0.119. Next, RRIRERPPRLPRPRPRPDTEPRP: -0.0215; RRIRSRPPRLPRPRPRPFSPPRP: -0.195. In the case of RRIRMRPPRLPRPRPRPAMAPRP, the “shrunken log2 fold change” value is 0.778. For RRIRTRPPRLPRPRPRPKSAPRP, the “shrunken log2 fold change” value stood at 0.221. On to RRIRNRPPRLPRPRPRPRMTPRP, for which the “shrunken log2 fold change” value amounted to 0.259. As for RRIRPRPPRLPRPRPRPNNTPRP, the “shrunken log2 fold change” value is -0.312.

As to RRIRVRPPRLPRPRPRPGAKPRP, the “shrunken log2 fold change” value stood at 0.189. In the case of RRIRHRPPRLPRPRPRPIEQPRP it was -0.0277. As for RRIRQRPPRLPRPRPRPLLHPRP, the “shrunken log2 fold change” value was -0.182.

Turning to RRIRPRPPRLPRPRPRPHWMPRP, the “shrunken log2 fold change” value came to 0.0365. Next, RRIRRRPPRLPRPRPRPKKMPRP: 0.318; RRIRYRPPRLPRPRPRPRTIPRP: -0.228; RRIRSRPPRLPRPRPRPRRWPRP: 0.556.

As to RRIRPRPPRLPRPRPRPNMYPRP, the “shrunken log2 fold change” value was -0.746. As to RRIRERPPRLPRPRPRPSWEPRP, the “shrunken log2 fold change” value was -0.25.

For the sequence RRIRLRPPRLPRPRPRPNVYPRP, the “shrunken log2 fold change” value is -0.186. RRIRNRPPRLPRPRPRPMGKPRP: the “shrunken log2 fold change” value is -0.491. RRIRFRPPRLPRPRPRPKGMPRP: the “shrunken log2 fold change” value was -0.243. For the sequence RRIRYRPPRLPRPRPRPSSFPRP, the “shrunken log2 fold change” value was -0.0941. On to RRIRRRPPRLPRPRPRPQCMPRP, for which the “shrunken log2 fold change” value is -0.0592. Next, RRIRMRPPRLPRPRPRPYQQPRP: -0.00196; RRIRLRPPRLPRPRPRPGKDPRP: -0.153. Regarding RRIRQRPPRLPRPRPRPLHDPRP, the “shrunken log2 fold change” value is -0.346. Regarding RRIRLRPPRLPRPRPRPIGDPRP, the “shrunken log2 fold change” value was -0.118. RRIRIRPPRLPRPRPRPLDDPRP: the “shrunken log2 fold change” value amounted to 0.0241.

Turning to RRIRKRPPRLPRPRPRPYEKPRP, the “shrunken log2 fold change” value was -0.0121. Consider RRIRRRPPRLPRPRPRPCLQPRP, for which the “shrunken log2 fold change” value was -0.0554.

Take RRIRTRPPRLPRPRPRPSRCPRP: the “shrunken log2 fold change” value amounted to 0.061. As to RRIRKRPPRLPRPRPRPLRMPRP, the “shrunken log2 fold change” value was found to be 0.236. Turning to RRIRVRPPRLPRPRPRPTPSPRP, the “shrunken log2 fold change” value worked out at 0.253. Take RRIRSRPPRLPRPRPRPGLLPRP: the “shrunken log2 fold change” value is -0.0369. Take RRIRVRPPRLPRPRPRPTDFPRP: the “shrunken log2 fold change” value was -0.0704.

RRIRTRPPRLPRPRPRPAQYPRP: the “shrunken log2 fold change” value worked out at 0.105. For RRIRDRPPRLPRPRPRPTDQPRP, the “shrunken log2 fold change” value stood at 0.118.

As to RRIRMRPPRLPRPRPRPEKNPRP, the “shrunken log2 fold change” value turned out to be 2.16.

Turning to RRIRCRPPRLPRPRPRPCKNPRP, the “shrunken log2 fold change” value was -0.194. Consider RRIRNRPPRLPRPRPRPRFRPRP, for which the “shrunken log2 fold change” value is 0.0503. Consider RRIRKRPPRLPRPRPRPWFGPRP, for which the “shrunken log2 fold change” value is 0.0558. As to RRIRFRPPRLPRPRPRPGQHPRP, the “shrunken log2 fold change” value is 0.176. For RRIRLRPPRLPRPRPRPRCEPRP, the “shrunken log2 fold change” value is 0.194. With RRIRFRPPRLPRPRPRPPEGPRP, the “shrunken log2 fold change” value amounted to 0.996.

For RRIRKRPPRLPRPRPRPSATPRP, the “shrunken log2 fold change” value was 0.368. Next, RRIRMRPPRLPRPRPRPFVIPRP: -0.197. For the sequence RRIRERPPRLPRPRPRPADEPRP, the “shrunken log2 fold change” value is -0.032. Regarding RRIRVRPPRLPRPRPRPAVYPRP, the “shrunken log2 fold change” value was -0.161. On to RRIRARPPRLPRPRPRPHHPPRP, for which the “shrunken log2 fold change” value was -0.242. For the sequence RRIRIRPPRLPRPRPRPTAEPRP, the “shrunken log2 fold change” value is -0.0333. For RRIRRRPPRLPRPRPRPMGKPRP, the “shrunken log2 fold change” value was determined as 0.35. Take RRIRLRPPRLPRPRPRPDQFPRP: the “shrunken log2 fold change” value is 0.0392. Turning to RRIRRRPPRLPRPRPRPHVWPRP, the “shrunken log2 fold change” value came out at 0.242. In the case of RRIRERPPRLPRPRPRPMLRPRP, the “shrunken log2 fold change” value was -0.0352.

As to RRIRFRPPRLPRPRPRPYNCPRP, the “shrunken log2 fold change” value was -0.768. For the sequence RRIRHRPPRLPRPRPRPSNMPRP, the “shrunken log2 fold change” value was -1.48. In the case of RRIRQRPPRLPRPRPRPCQEPRP it was -0.015; in that of RRIRTRPPRLPRPRPRPTALPRP, 0.0207; in that of RRIRVRPPRLPRPRPRPKHNPRP, -0.292. RRIRGRPPRLPRPRPRPSLHPRP: the “shrunken log2 fold change” value was determined as 0.316. Next, RRIRERPPRLPRPRPRPFCVPRP: -0.026; RRIRHRPPRLPRPRPRPMSLPRP: -0.00613. Regarding RRIRARPPRLPRPRPRPQFDPRP, the “shrunken log2 fold change” value was 0.545. For the sequence RRIRARPPRLPRPRPRPLHLPRP, the “shrunken log2 fold change” value came out at 0.0337. As for RRIRARPPRLPRPRPRPNPGPRP, the “shrunken log2 fold change” value is 0.462. With RRIRQRPPRLPRPRPRPEKFPRP, the “shrunken log2 fold change” value is -0.029. RRIRSRPPRLPRPRPRPFFVPRP: the “shrunken log2 fold change” value was -0.184. Consider RRIRGRPPRLPRPRPRPQQVPRP, for which the “shrunken log2 fold change” value turned out to be 0.564. In the case of RRIRMRPPRLPRPRPRPPYMPRP, the “shrunken log2 fold change” value is -0.135.

For RRIRVRPPRLPRPRPRPQASPRP, the “shrunken log2 fold change” value was determined as 0.322. Next, RRIRQRPPRLPRPRPRPDSIPRP: -0.00697; RRIRARPPRLPRPRPRPANNPRP: -0.0617; RRIRRRPPRLPRPRPRPSTHPRP: 0.0934.

Consider RRIRVRPPRLPRPRPRPINEPRP, for which the “shrunken log2 fold change” value is -0.3.
